# Source: patent US20240018513A1, “SYNTHETIC INTRONS FOR TARGETED GENE EXPRESSION” (FRED HUTCHINSON CANCER CENTER, priority 2020, published 2024)
# B1: intron_26: 150 nt MTERFD3 intron 1-derived synthetic intron, deletion 25to125; SEQ ID NO 58/66 (nucleic acid)
# DNA 1: GTGAGTCGCCCCCTTCCTCTGCTCCGAGAGGGAAATGGGAATTAGGGTGGTGGCAGAGCCCAAAGAGGCCTTGTAGGCCATGGTAAGGCATTTCTATGTTTTATTTTACTTTGTCTTTATCCTAAAATGCCATTGGCAAGTTTATTGCAG
# DNA 2: B1 DNA 1
# How the values were obtained:
# [1] = tested on: WT or SF3B1-mutant K562 cells; test: K562 xenografts (intravenous), GCV or PBS, bioluminescence and survival; type: in vivo, NOD-scid IL2Rgnull (NSG) mice
# Text: FIGS. 4A-4I: Synthetic introns enable mutation-dependent cancer cell targeting in vivo. (4A) Schematic of xenograft experiments with K562 cells expressing Luciferase and HSV-TK interrupted by synMTERFD3i1-150. K562 cells were intravenously injected into sub-lethally irradiated (250 cGy) NOD-scid IL2rgnull (NSG) mice (2M cells/mouse). n=10 (WT) and 9 (SF3B1-mutant) mice per cohort. (4B) Quantification of tumor burden, estimated by whole-body bioluminescent signal. Each point represents a single mouse. (4C) Representative bioluminescence images from cohorts described in (4A). (4D) Survival of mice from cohort described in (4A). p computed with logrank test. Comparisons not illustrated on plot are not significant (p+/+ GCV vs. PBS=0.534; pK700E/+PBS vs.+/+PBS=0.823). The cause of death for the one GCV-treated animal engrafted with an SF3B1-mutant leukemia which died by experiment endpoint was unclear, as this animal had minimal leukemic burden by imaging or necropsy. (4E) Survival curves of NSG mice engrafted with SF3B1 WT (top) or SF3B1 K700E (bottom) MOLM-13 cells expressing Luciferase and HSV-TK interrupted by synMTERFD3i1-150 followed by treatment with either PBS or GCV. pK700E/+ PBS vs. pK700E/+GCV=0.011. n=10 mice/group. (4F) Representative bioluminescence images from cohorts described in (4E). (4G) Tumor volumes of mice engrafted with SF3B1 WT or SF3B1 K700E T47D cells expressing HSV-TK interrupted by synMTERFD3i1-150 followed by treatment with either PBS or GCV. T47D cells were engrafted subcutaneously. Data represented as mean±s.d. n=8 mice/group. (4H) Tumor volumes of mice engrafted with SF3B1 WT MEL285 cells (left) or SF3B1 R625G MEL202 cells (right) expressing HSV-TK interrupted by synthetic intron 6700 (synMTERFD3i1-150 with A>C at −7 nt; A>C at −19 nt) followed by treatment with either PBS or GCV. All cells were engrafted subcutaneously. Data represented as mean±s.d. n=10 mice/group. (4I) Representative gross images of the tumors from (4H) at day 27 post-implantation.
# Having identified the key features governing mutation responsiveness, the next step was to test whether synthetic introns permitted mutation-dependent cancer cell killing in vivo. A focus was made on synMTERFD3i1-150 for these experiments, as it served as the parent synthetic intron from which most of the full library was derived. Luciferase-GFP constructs were introduced into WT or SF3B1-mutant K562 cells expressing HSV-TK interrupted by synMTERFD3i1-150, tail vein injections of these cells were performed into NOD-scid IL2Rgnull (NSG) mice. The mice were treated with PBS or GCV and monitored for leukemia burdens with live imaging (FIG. 4A). […]
# MOLM-13 cells = test: MOLM-13 xenografts (intravenous), doxycycline-inducible SF3B1 WT or K700E, GCV or PBS; type: in vivo, NSG mice; conditions: GCV-treated arm engrafted with SF3B1K700E-expressing MOLM-13 cells
# Text: FIGS. 4A-4I: Synthetic introns enable mutation-dependent cancer cell targeting in vivo. (4A) Schematic of xenograft experiments with K562 cells expressing Luciferase and HSV-TK interrupted by synMTERFD3i1-150. K562 cells were intravenously injected into sub-lethally irradiated (250 cGy) NOD-scid IL2rgnull (NSG) mice (2M cells/mouse). n=10 (WT) and 9 (SF3B1-mutant) mice per cohort. (4B) Quantification of tumor burden, estimated by whole-body bioluminescent signal. Each point represents a single mouse. (4C) Representative bioluminescence images from cohorts described in (4A). (4D) Survival of mice from cohort described in (4A). p computed with logrank test. Comparisons not illustrated on plot are not significant (p+/+ GCV vs. PBS=0.534; pK700E/+PBS vs.+/+PBS=0.823). The cause of death for the one GCV-treated animal engrafted with an SF3B1-mutant leukemia which died by experiment endpoint was unclear, as this animal had minimal leukemic burden by imaging or necropsy. (4E) Survival curves of NSG mice engrafted with SF3B1 WT (top) or SF3B1 K700E (bottom) MOLM-13 cells expressing Luciferase and HSV-TK interrupted by synMTERFD3i1-150 followed by treatment with either PBS or GCV. pK700E/+ PBS vs. pK700E/+GCV=0.011. n=10 mice/group. […]
# Next, the potential efficacy of using synthetic introns was tested in other cancer models. […] Leukemia burden and survival were monitored. […]
# T47D cells = test: T47D subcutaneous xenografts, doxycycline-inducible SF3B1 WT or K700E, GCV or PBS; type: in vivo, NSG mice; conditions: GCV vs PBS
molecule,measurement,setting,value
B1,"survival, p (logrank test)",[1]; +/+ (WT) GCV vs. PBS,0.534
same,leukemic burden (whole-body bioluminescent signal),[1]; GCV 80 mg/kg IP three times per week vs PBS,"immediate and sustained suppression of SF3B1-mutant leukemic burden, with no effects on WT leukemias"
same,survival,[1]; GCV- vs PBS-treated SF3B1-mutant leukemias,significantly increased survival
same,"survival, p (logrank test)",[1]; GCV- vs. PBS-treated SF3B1-mutant leukemias,1.7e-4
same,survival and tumor burden,MOLM-13 cells,significantly prolonged survival and reduced tumor burden
same,tumor burden (tumor volume),T47D cells,specifically reduced tumor burden in the GCV-treated arm engrafted with SF3B1K700E-expressing cells
